Target: enterovirus 71 (EV71) virions (enterovirus 71)
Test: cell-based or functional assay

Row | Binder | Inhibitory concentration 50 (IC50), Vero ATCC [µg/mL] | Inhibitory concentration 50 (IC50), Vero NIBSC [µg/mL] | PRNT50 of original hybridoma [µl/ml] | end point PRNT50, Vero ATCC [ng/mL] | end point PRNT50, Vero NIBSC [ng/mL]
1 | monoclonal antibody E18 produced by the hybridoma cell line EV18/4 (antibody, V domains shown) VH: QIQLVQSGPELKKPGETVKISCKASGYTFTRYGMSWVKQAPGKGLKWMGWINTYSGVPTYADDFKGRFAFSLETSASTAYLQINNLKNEDTATYFCARRGYSNYYPMDFWGQGTSVTVSS VL: DIKMTQSPSSMYASLGERVTITCKASQDIKSYLSWYQQKPWKSPKTLIYYAKNLADGVPSRFSGSGFGQDYSLTISSLESDDTATYYCLQHGESPYTFGSGTKLEIKR | 0.272 | 0.181 | 0.625 | 625 | 312
2 | monoclonal antibody E20 produced by the hybridoma cell line EV20/5 (antibody, V domains shown) VH: EVQLVESGGGLVKPGGSLKLSCAASGFTFNIYAMSWVRQTPEKRLEWVATISDGGSYTYYPDNVKGRFTISRDNAKNNLYLQMSHLKSEDTAMYYCVRDRGNYYSRAFPYAYWGQGTLVTVSA VL: SIVMTQTPKFLPVSAGDRVTMTCKASQSVGNNVAWYQQKSGQSPKLLIYYASNRYTGVPDRFTGSGSGTDFTFTISSVQVEDLAVYFCQQHYSSPPTFGAGTKLELK |  | 9.95 | 5 |  | 10000

Reference: patent US20160333075A1
